Reference: patent publication US20070020327A1
Read-outs that look alike come from different tables or passages of the source. Values belong to the binder of their own block, whether it stands above or below them.

Experiments:
HLA-A*0201 (human) [1] = test: competitive inhibition of 125I-labelled standard peptide binding to purified HLA, gel filtration; ratio = IC50 standard / IC50 test peptide
HLA-A*0203 (human) [2] = test: as above
HLA-A*0206 (human) [3] = test: as above
HLA-A*0202 (human) [4] = test: as above
HLA-A*0206 (human) [5] = test: competition with 125I-labelled standard peptide 941.01 ([..]) for purified HLA-A*0206, gel filtration
HLA-A*0203 (human) [6] = test: competition with 125I-labelled standard peptide 941.01 ([..]) for purified HLA-A*0203, gel filtration
HLA-A*0202 (human) [7] = test: competition with 125I-labelled standard peptide 941.01 ([..]) for purified HLA-A*0202, gel filtration
HLA-A*0201 (human) [8] = test: competition with 125I-labelled standard peptide 941.01 ([..]) for purified HLA-A*0201, gel filtration
HLA-A*6802 (human) [9] = test: competition with 125I-labelled standard peptide 1072.34 ([..]) for purified HLA-A*6802, gel filtration
HLA-A*0201 (human) [10] = test: competition with 125I-labelled standard peptide for purified HLA, gel filtration; ratio = IC50 standard / IC50 test peptide
HLA-A*6802 (human) [11] = test: as above
HLA-A*0203 (human) [12] = test: as above
HLA-A*0206 (human) [13] = test: as above
HLA-A*0202 (human) [14] = test: as above
HLA-A*6802 (human) [15] = test: competitive inhibition of 125I-labelled standard peptide binding to purified HLA, gel filtration; ratio = IC50 standard / IC50 test peptide; conditions: remark: other sources report otherwise

B2: PSA peptide VASRGRAV (position 38, 8 amino acids) (peptide)
peptide: VASRGRAV
modifications: not checked
binding affinity ratio (IC50 of standard peptide / IC50 of test peptide) (HLA-A*0206 (human) [5]): -0.0001
binding affinity ratio (IC50 of standard peptide / IC50 of test peptide) (HLA-A*0203 (human) [6]): -0.0001
binding affinity ratio (IC50 of standard peptide / IC50 of test peptide) (HLA-A*0202 (human) [7]): -0.0001
binding affinity ratio (IC50 of standard peptide / IC50 of test peptide) (HLA-A*0201 (human) [8]): -0.0001
binding affinity ratio (IC50 of standard peptide / IC50 of test peptide) (HLA-A*6802 (human) [9]): -0.0001

B3: PSA peptide QVHPQKVT, position 182, 8 amino acids (peptide)
peptide: QVHPQKVT
modifications: not checked
binding affinity ratio (ratio to standard peptide) (HLA-A*0201 (human) [10]): -0.0001
binding affinity ratio (ratio to standard peptide) (HLA-A*6802 (human) [11]): -0.0001
binding affinity ratio (ratio to standard peptide) (HLA-A*0203 (human) [12]): 0.0001
binding affinity ratio (ratio to standard peptide) (HLA-A*0206 (human) [13]): -0.0001
binding affinity ratio (ratio to standard peptide) (HLA-A*0202 (human) [14]): -0.0001

Now from value to binder:

binding affinity ratio (HLA-A*0201 (human) [1]): -0.0001
binding affinity ratio (HLA-A*0203 (human) [2]): 0.0002
binding affinity ratio (HLA-A*0206 (human) [3]): 0.0002
binding affinity ratio (HLA-A*0202 (human) [4]): -0.0001
B1: … (Kallikrein, position 40) (peptide)
peptide: VAVYSHGWA
modifications: not checked

binding affinity ratio (HLA-A*0201 (human) [1]; remark: other sources report otherwise): 0.0008
binding affinity ratio (HLA-A*6802 (human) [15]): -0.0001
B4: … (Kallikrein, position 138) (peptide)
peptide: VLGLPTQEPA
modifications: not checked
